From ChEMBL document CHEMBL3525898, “Pharmacogenomics of gemcitabine metabolism: functional analysis of genetic variants in cytidine deaminase and deoxycytidine kinase” (Drug Metab Dispos, 2013)

Substrate: Nc1ccn([C@@H]2O[C@H](CO)[C@@H](O)C2(F)F)c(=O)n1
Assay: Activity of human recombinant N-terminal His-SUMO fused wild type CDA expressed in Escherichia coli BL21(DE3) cells assessed as 2',2'-difluorodeoxyuridine formation by liquid chromatography-tandem mass spectrometry
Assay type: ADME

B1: Cytidine deaminase (Homo sapiens) (protein)
chain: MAQKRPACTLKPECVQQLLVCSQEAKKSAYCPYSHFPVGAALLTQEGRIFKGCNIENACYPLGICAERTAIQKAVSEGYKDFRAIAIASDMQDDFISPCGACRQVMREFGTNWPVYMTKPDGTYIVMTVQELLPSSFGPEDLQKTQ
With B1 the Km was 630 µM and the Vmax was 0.187 µmol/min/mg.
